Reference: IntAct's records for PubMed 19402751

Molecular target: T1, tim_drome tim (UniProt P49021)
T1 sequence: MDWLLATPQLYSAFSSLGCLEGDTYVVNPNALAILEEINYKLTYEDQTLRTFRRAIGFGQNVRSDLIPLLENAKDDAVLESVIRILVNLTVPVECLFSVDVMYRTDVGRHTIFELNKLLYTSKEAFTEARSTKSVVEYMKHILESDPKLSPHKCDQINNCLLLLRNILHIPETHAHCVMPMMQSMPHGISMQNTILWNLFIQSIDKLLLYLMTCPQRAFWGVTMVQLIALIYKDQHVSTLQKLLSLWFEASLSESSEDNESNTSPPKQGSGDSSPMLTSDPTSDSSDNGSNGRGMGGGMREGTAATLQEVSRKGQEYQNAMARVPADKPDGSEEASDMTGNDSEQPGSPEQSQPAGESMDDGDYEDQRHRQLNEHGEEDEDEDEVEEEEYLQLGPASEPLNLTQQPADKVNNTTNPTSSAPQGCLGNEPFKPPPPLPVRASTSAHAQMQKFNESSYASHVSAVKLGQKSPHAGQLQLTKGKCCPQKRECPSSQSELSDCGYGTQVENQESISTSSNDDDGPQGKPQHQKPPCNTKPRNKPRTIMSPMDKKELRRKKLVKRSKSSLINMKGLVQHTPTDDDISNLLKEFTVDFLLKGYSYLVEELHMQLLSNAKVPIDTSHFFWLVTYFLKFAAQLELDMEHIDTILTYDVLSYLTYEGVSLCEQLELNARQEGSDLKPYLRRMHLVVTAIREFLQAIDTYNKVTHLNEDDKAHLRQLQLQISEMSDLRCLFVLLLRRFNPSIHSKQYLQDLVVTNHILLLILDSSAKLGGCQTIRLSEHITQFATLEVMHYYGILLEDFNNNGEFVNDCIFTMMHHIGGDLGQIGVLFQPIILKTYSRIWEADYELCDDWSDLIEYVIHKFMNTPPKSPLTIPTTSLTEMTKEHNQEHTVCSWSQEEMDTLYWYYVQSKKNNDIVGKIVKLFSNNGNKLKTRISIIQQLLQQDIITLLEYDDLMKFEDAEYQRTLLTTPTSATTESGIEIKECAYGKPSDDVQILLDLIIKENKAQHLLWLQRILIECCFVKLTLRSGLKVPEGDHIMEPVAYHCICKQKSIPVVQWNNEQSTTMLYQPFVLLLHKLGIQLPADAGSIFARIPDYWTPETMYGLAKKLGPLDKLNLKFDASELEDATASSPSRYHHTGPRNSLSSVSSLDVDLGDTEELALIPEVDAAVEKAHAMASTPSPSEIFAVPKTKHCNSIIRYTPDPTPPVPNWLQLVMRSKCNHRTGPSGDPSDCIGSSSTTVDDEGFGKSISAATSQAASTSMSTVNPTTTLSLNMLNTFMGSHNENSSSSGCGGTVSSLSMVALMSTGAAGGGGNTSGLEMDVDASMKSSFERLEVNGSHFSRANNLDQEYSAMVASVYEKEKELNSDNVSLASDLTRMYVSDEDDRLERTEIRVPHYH

effect of a mutation on the interaction: disrupting interaction
Substance: Period circadian protein (Drosophila melanogaster (Fruit fly)) (from UniProt P07663-1) E474R;H492S;R494D
